The values that follow come from article PMC4210448.

The experiment concerns the target Map205 (UniProt P23226). In words: PrA-Map205 affinity purification, GFP blot. Particulars: reference: Polo WT-GFP with Aurora B–Myc; sites T182.

“Polo (from UniProt P52304) Polo T182A-GFP with Aurora B–Myc”: the “binding against the reference” value is given as “stronger”.
